Publication PMC9132681 (Biochimie, 2022)

B1: C-terminal domain of human Hsp90 (residues 566-732) (domain or fragment)
chain: not shown
B2: cytosolic fragment of human TOM70 (residues 111-608), His-tagged (domain or fragment)
chain: LDRAQAAKNKGNKYFKAGKYEQAIQCYTEAISLCPTEKNVDLSTFYQNRAAAFEQLQKWKEVAQDCTKAVELNPKYVKALFRRAKAHEKLDNKKECLEDVTAVCILEGFQNQQSMLLADKVLKLLGKEKAKEKYKNREPLMPSPQFIKSYFSSFTDDIISQPMLKGEKSDEDKDKEGEALEVKENSGYLKAKQYMEEENYDKIISECSKEIDAEGKYMAEALLLRATFYLLIGNANAAKPDLDKVISLKEANVKLRANALIKRGSMYMQQQQPLLSTQDFNMAADIDPQNADVYHHRGQLKILLDQVEEAVADFDECIRLRPESALAQAQKCFALYRQAYTGNNSSQIQAAMKGFEEVIKKFPRCAEGYALYAQALTDQQQFGKADEMYDKCIDLEPDNATTYVHKGLLQLQWKQDLDRGLELISKAIEIDNKCDFAYETMGTIEVQRGNMEKAIDMFNKAINLAKSEMEMAHLYSLCDAAHAQTEVAKKYGLKPPTL

Tests used:
[1] = biological target: B2; assay: SEC-MALS
full-length human Hsp90 = full-length human Hsp90 (human, UniProt P07900 1-732); assay: pull-down

Row | Binder | stoichiometry N [1] [C-Hsp90 per TOM70] | binding result (full-length human Hsp90)
1 | B1 | 2 | 
2 | B2 |  | binds
